Source: paper PMC10593786 (Nature Communications, 2023)

B3: Myo6 ^YFPCBD (WT) (domain or fragment, mouse, UniProt Q64331 1032-1262, looked up)
chain: MALRRGPAVQATKAAAGTKKHDLSKWKYAELRDTINTSCDIELLAACREEFHRRLKVYHAWKSKNKKRNTETEQRAPKSVTDYDFAPFLNNSPQQNPAAQLPARQQEIDMKRQQRFFRIPFIRPADQYKDPQNKKKGWWYAHFDGPWIARQMELHPDKPPILLVAGKDDMEMCELNLEETGLTRKRGAEILPRQFEEIWERCGGIQYLQSAIESRQARPTYATAMLQNLLK
notes: The results call it CBD^1035-end, the methods give M1032; also called Myo6 CBD; CBD^1035-end; source: E. coli BL21 (DE3), purified (HisTrap IMAC, SEC); not shown: YFP, N-terminal, kept
B4: ^HisTOM1 (His-TOM1 207-492) (domain or fragment)
chain: DTPIAPTPEQIGKLRSELEMVSGNVRVMSEMLTELVPTQAEPADLELLQELNRTCRAMQQRVLELIPQIANEQLTEELLIVNDNLNNVFLRHERFERFRTGQTTKAPSEAEPAADLIDMGPDPAATGNLSSQLAGMNLGSSSVRAGLQSLEASGRLEDEFDMFALTRGSSLADQRKEVKYEAPQATDGLAGALDARQQSTGAIPVTQACLMEDIEQWLSTDVGNDAEEPKGVTSEEFDKFLEERAKAADRLPNLSSPSAEGPPGPPSGPAPRKKTQEKDDDMLFAL
notes: human TOM1 residues 207-end (207-492); The ATPase assays used His-YFP-TOM1 436-461, the MNT-1 assays ^mCherryMST-TOM1 (299-end); also called TOM1 207-end; source: E. coli BL21 (DE3), purified (IMAC, SEC); not shown: His6, N-terminal, kept

Legend:
[1] = biological target: B3; assay: MST; ^YFPCBD kept at 100 nM, Ins2/IQ/3HB titrated (16 two-fold dilutions), 25 °C, 20 mM Hepes pH 7.5, 50 mM NaCl, 2.5 mM MgCl2, 1 mM TCEP, 0.05% Tween-20; motor state '-' (no Motor domain); conditions: both partners purified
[2] = biological target: B3; assay: MST; ^YFPCBD kept at 100 nM, Myo6 partner titrated (16 two-fold dilutions), 25 °C, 20 mM Bis-Tris pH 6.5, 100 mM KCl, 1 mM DTT, 0.05% Tween-20; conditions: both partners purified
[3] = biological target: T1, Myo6 MD (1-789) (UniProt Q29122 1-789); assay: MST; ^YFPCBD kept at 100 nM, Head sample titrated (16 two-fold dilutions), 25 °C, 20 mM Hepes pH 7.5, 50 mM NaCl, 2.5 mM MgCl2, 1 mM TCEP, 0.05% Tween-20, with 2 mM MgADP and 2 mM Na3VO4 (motor state ADP.VO4); conditions: both partners purified
T1 construct: myosin VI (Myo6) residues 1-789: Motor domain; also called Motor domain; source: Sf9/baculovirus, co-infected with human CaM virus, purified (anti-Flag resin)
T1 sequence (Q29122 1-789): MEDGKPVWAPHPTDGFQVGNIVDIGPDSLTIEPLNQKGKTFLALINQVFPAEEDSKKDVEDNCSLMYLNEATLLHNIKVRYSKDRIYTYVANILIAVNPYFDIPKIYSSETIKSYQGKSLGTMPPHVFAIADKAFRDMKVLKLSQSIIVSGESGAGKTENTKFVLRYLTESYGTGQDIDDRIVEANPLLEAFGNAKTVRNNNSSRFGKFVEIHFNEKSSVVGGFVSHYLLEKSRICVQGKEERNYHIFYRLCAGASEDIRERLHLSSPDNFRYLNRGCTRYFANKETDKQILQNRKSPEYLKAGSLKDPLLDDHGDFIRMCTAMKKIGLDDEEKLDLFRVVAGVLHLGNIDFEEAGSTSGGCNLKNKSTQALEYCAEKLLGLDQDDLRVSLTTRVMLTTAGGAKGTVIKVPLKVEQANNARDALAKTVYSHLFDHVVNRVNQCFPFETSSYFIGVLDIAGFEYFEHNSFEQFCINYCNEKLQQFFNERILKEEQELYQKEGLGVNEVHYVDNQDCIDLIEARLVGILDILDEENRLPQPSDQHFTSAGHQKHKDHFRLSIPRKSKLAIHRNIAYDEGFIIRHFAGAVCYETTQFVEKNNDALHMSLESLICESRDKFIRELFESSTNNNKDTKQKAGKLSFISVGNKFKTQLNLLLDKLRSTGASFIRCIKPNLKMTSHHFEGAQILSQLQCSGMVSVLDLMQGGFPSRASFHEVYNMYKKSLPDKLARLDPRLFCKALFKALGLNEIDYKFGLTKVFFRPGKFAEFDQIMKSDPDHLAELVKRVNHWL

[4] = biological target: T2, Myo6 MD^Ins2/IQ/3HB (1-917) ( | human, UniProt Q29122 1-917; P0DP23 1-149); assay: as above; conditions: both partners purified
T2 construct: also called Myo6-917; Myo6 Head fragment

[5] = biological target: T3, Myo6 MD^Ins2 (2-816) ( | human, UniProt Q29122 2-816; P0DP23 1-149); assay: as above; conditions: both partners purified
T3 construct: also called Tail-less construct

[6] = biological target: T2, Myo6 MD^Ins2/IQ/3HB (1-917); assay: MST; ^YFPCBD kept at 100 nM, Head sample titrated (16 two-fold dilutions), 25 °C, 20 mM Hepes pH 7.5, 50 mM NaCl, 2.5 mM MgCl2, 1 mM TCEP, 0.05% Tween-20, nucleotide-free (motor state NF); conditions: both partners purified
[7] = biological target: B4; assay: MST; ^YFPCBD kept at 100 nM, Myo6 partner titrated (16 two-fold dilutions), 25 °C, 20 mM Bis-Tris pH 6.5, 100 mM KCl, 1 mM DTT, 0.05% Tween-20; conditions: both partners purified
[8] = biological target: T4, full-length wild-type Myo6, small insert isoform (FLMyo6 SI (WT)) (human, UniProt Q9UM54-2 1-1262; P0DP23 1-149); assay: pull-down; conditions: both partners purified
T4 construct: also called FLMyo6 (WT)

[9] = biological target: T5, FLMyo6 SI (SAHmimic) (human, UniProt Q9UM54-2 1-1262; P0DP23 1-149, Glu922 to Glu935 (EAERLRRIQEEMEK) replaced with EERKRREEEERKKREEE); assay: pull-down; anti-His pull-down on Ni2+ beads, His-partner and FLMyo6 SI (SAHmimic) 1/1 (10 µM), 1 µM extra calmodulin, 4 °C; which of the three buffers is not given; conditions: both partners purified
T5 construct: also called FLMyo6 (SAHmimic)

[10] = biological target: the molecule itself; assay: SEC-MALS; fragments of the 3HB/SAH junction on Superdex 200 10/300 Increase, 0.5 mL/min; titration; apparent KD, dimer to monomers
[11] = biological target: the molecule itself; assay: SEC-MALS; injection of 50 µL at 10 mg/mL in 10 mM Tris-HCl pH 7.5, 50 mM NaCl, 5 mM NaN3, 0.5 mM TCEP; peak concentration by the in-line refractometer

B1: Myo6 Ins2/IQ/3HB (aa 783-917) (domain or fragment, human, UniProt Q9UM54-5 783-917, looked up)
chain: RVNHWLTCSRWKKVQWCSLSVIKLKNKIKYRAEACIKMQKTIRMWLCKRRHKPRIDGLVKVGTLKKRLDKFNEVVSVLKDGKPEMNKQIKNLEISIDTLMAKIKSTMMTQEQIQKEYDALVKSSEELLSALQKKK
notes: human myosin VI, aa 783-917 (insert-2, IQ, 3-helix bundle), from the human FLMyo6 no-insert construct; source: E. coli BL21 (DE3), purified (IMAC, SEC); not shown: His6, N-terminal, cleaved
- Kd [1]: 250 nM

B2: ^HisGIPC1 (His-rTEV-GIPC1 255-end) (domain or fragment, mouse, UniProt Q9Z0G0 255-333, looked up)
chain: DLPSAFEEKAIEKVDDLLESYMGIRDTELAATMVELGKDKRNPDELAEALDERLGDFAFPDEFVFDVWGAIGDAKVGRY
notes: mouse GIPC1 truncated in the N-terminus at aa D255 to keep only the GH2 domain; The ATPase assays used His-mNeonGreen-GIPC1 238-end, the MNT-1 assays ^mCherryMST-GIPC1 (239-end); also called GH2 domain; source: E. coli BL21 (DE3), purified (IMAC, SEC); not shown: His6, N-terminal, kept
- binding result [2]: binds

Binder: B3
- Kd [3]: 3920 nM
- Kd [4]: 144 nM
- Kd [5]: 343 nM
- Kd [6]: 726 nM
- binding result [7]: binds

Binder: B4
- binding result [8]: binds
- binding result [9]: binds

B5: Myo6 875-940 (N-terminal 6xHis-tag, pET14) (domain or fragment, mouse, UniProt Q64331 875-940, looked up)
chain: EISIDALMAKIKSTMMTREQIQKEYDALVKSSEDLLSALQKKKQQEEEAERLRRIQEEMEKERKRR
notes: mouse myosin VI aa 875-940: 2nd and 3rd helix of the 3HB and first part of the SAH; also called aa 875-940; 875-940 peptide; source: E. coli BL21 (DE3), purified (IMAC, SEC)
- Kd [10]: ~19000 nM

B6: Myo6 875-940 (his-rTEV-875-940, pProEX-HTb) (domain or fragment, mouse, UniProt Q64331 875-940, looked up)
chain: EISIDALMAKIKSTMMTREQIQKEYDALVKSSEDLLSALQKKKQQEEEAERLRRIQEEMEKERKRR
notes: mouse myosin VI aa 875-940; Made for crystallization; also called Myo6 875-940 WT; 875-940 peptide; source: E. coli BL21 (DE3), purified (IMAC, rTEV, SEC); not shown: His6, N-terminal, cleaved
- stoichiometry N [11]: 2
